In the experiment the target is T1, Arabidopsis TIR1 (Transport Inhibitor Response 1), coexpressed with AtASK1 (Arabidopsis, UniProt Q570C0 1-594; Q39255 1-160).
T1 construct: a TEV site stands between the tags and TIR1; ASK1 (AtASK1), Arabidopsis, coexpressed with TIR1; a TEV site stands between the tag and ASK1; that the sample is the TIR1-ASK1 complex is surmised from the coexpression; Cleavage with TEV is not mentioned; also called AtTIR1; His10-eGFP-FLAG-(TEV)-AtTIR1
T1 sequence (looked up) 1: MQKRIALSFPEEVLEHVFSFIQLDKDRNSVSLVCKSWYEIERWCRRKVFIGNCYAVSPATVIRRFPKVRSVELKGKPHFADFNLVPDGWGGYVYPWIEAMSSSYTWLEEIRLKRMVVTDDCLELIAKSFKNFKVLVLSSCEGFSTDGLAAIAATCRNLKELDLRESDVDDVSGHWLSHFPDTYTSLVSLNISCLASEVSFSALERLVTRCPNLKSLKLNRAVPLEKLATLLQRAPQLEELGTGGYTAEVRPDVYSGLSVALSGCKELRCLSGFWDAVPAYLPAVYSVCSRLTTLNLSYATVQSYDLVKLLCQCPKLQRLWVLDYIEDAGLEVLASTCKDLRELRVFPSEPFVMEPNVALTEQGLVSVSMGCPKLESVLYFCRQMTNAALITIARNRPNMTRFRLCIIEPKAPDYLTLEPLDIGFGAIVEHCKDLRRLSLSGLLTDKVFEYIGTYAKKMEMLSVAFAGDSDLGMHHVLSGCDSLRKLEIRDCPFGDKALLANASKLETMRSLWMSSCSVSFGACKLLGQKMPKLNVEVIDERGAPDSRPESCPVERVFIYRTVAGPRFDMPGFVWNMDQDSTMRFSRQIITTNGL
T1 sequence (looked up) 2: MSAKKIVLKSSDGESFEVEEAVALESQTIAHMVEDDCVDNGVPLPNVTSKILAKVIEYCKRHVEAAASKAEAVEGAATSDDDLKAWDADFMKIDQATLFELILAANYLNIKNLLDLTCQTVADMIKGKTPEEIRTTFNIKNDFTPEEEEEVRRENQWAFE
Description: NMR titration; 1H-15N HSQC of 15N-labeled AXR3 DI/DII with unlabeled TIR1 added, 1:3 ratio, 5 to 10 µM TIR1, 4 °C, 20 mM sodium phosphate pH 6.0, 150 mM NaCl, 3 mM EDTA, 10 mM DTT; loss of HN cross peak intensity; no auxin. Particulars: both partners purified.

Results on one molecule are retold here after publication PMC10556615 (Proceedings of the National Academy of Sciences of the …, 2023).

B1: AXR3 DI/DII (N-terminal half of the Aux/IAA protein IAA17/AXR3, residues 1 to 101) (domain or fragment, UniProt P93830 1-101, looked up)
chain: MMGSVELNLRETELCLGLPGGDTVAPVTGNKRGFSETVDLKLNLNNEPANKEGSTTHDVVTFDSKEKSACPKDPAKPPAKAQVVGWPPVRSYRKNVMVSCQ
modifications: 15N isotopically labeled
notes: AXR3 (IAA17), Aux/IAA protein, domains I and II (DI/DII), residues 1 to 101, without the C-terminal PB1 domain; also called AXR3_(1-101); N-terminal half of AXR3; source: E. coli Rosetta DE3, minimal media with 15N ammonium chloride, purified (Co-NTA)
For B1, the binding result is “binds”.
